Measured values from the nanobody polyreactivity screen of Harvey et al. (2022).

Assay: yeast display, Sf9 membrane polyspecificity reagent, FACS + sequencing; frameworks hold sequencing errors
How it was run: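 Galactose-induced (36–48 hours) yeast carrying a synthetic nanobody display library were exposed to 10% biotinylated, detergent-solubilized Sf9 membrane reagent at 4 °C for 1 hour. FACS followed streptavidin microbead enrichment, using low and high (top ~1%) gates for expression (anti-HA) and reagent binding (streptavidin). Colony PCR, MiSeq 2 × 250 sequencing and CDR-length filtering followed. Labels for polyreactivity reflect the gate of origin.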

Sequence | polyreactivity (PSR sort gate)
QVQLVESGGGLVHAGGSLRLSCAASGRTFPTNAMGWYRQSPGKDRELVAAISWSGGGTYYADSVKGRFTISRDNAKNTIYLQMNSLKPEDTAVYYCAADDTPDTIYGSDYWGQGTQVTVSS | low polyreactivity
QVQLVESGGGLVHAGGSLRLSCAASGRTFRDNVMGWSRQAPGKERELVAAISRSGGSTYYADSVKGRFTISRDNAKHTVYLQMNSQKPEDTAVYYSNAPYYVRSQYTFDYWGQGTQVTVSS | high polyreactivity
QVQLVESGGGLVHAGGSLRLSCAASGRTFRYYTMGWYRQAPGKEREFVAAISSTGGTYYADSVKGRFTISRDNAKNTVYLQMNSLKPEDTAVYYCAATFIQVVVNVQLYDYDYWGQGTQVTVSS | low polyreactivity
QVQLVESGGGLVHAGGSLRLSCAASGSIFFIYAMGGYRPAPGTERELVARISQGGASPYYADSVKGRFTISRDNAKTTVYLQMNSLKPEDTVVYYCAAGYTNTRLRPKGYGYYYWGQGTQVTVSW | high polyreactivity
QVQLVESGGGLVHAGGSLRLSCAASGSIFFQYGMGWYRHAPGKEREYVAAISVSGGSTYYADSVKGRFTISRDNAKNSVYLQMNSLKPEDTAVYYCAADGSTDYVYSPPIDEYDFWGQGTQVTVSS | low polyreactivity
QVQLVESGGGLVHAGGSLRLSCAASGSIFGYYTMGWYRQAPGKERELDAAITSGGSTNYADSVKGRFTISRDNAKNTVYLEMNSLKPEDTAVYYCAKVSYYPWRYDDWGQGTKVTVSS | low polyreactivity
QVQLVESGGGLVHAGGSLRLSCAASGSIFKPYVMGWYRQAPGKERELVAAITTSGVRTYYADSVKGRFTISRDNAKNTVYLQMNSLKPEDTAVYYCATRRWSWPQFRTGDYWGQGTQVTVSS | high polyreactivity
QVQLVESGGGLVHAGGSLRLSCAASGSIFNYYAMGWYRQAPGKERELVAAISYGTGSTYYADSVKWRFTISRDNAKNTDYLQMNSLKPEDTAVYYCAADTRYGYGYWGQGTQVTVSS | high polyreactivity
QVQLVESGGGLVHAGGSLRLSCAASGSIFPDNTMGWYRQAPGKERELVAAIDGRGGTTYYADSVKGRFTISRDNAKNTVYLQMNSLKPEDTAVYYCARDIGHSARYDYWGQGTQVTVSS | low polyreactivity
QVQLVESGGGLVHAGGSLRLSCAASGSIFTGYAMGWYRQAPGKERELVAAIDYRSGSTYYADSVKGRFTISRDNAKNTVYLQMNSLKPEDTAVYYCAAPAGWGFDEAFGYGYWGQGTQVTVSS | low polyreactivity
QVQLVESGGGLVHAGGSLRLSCAASGSIFVWNAMGWYRQAPGKERELVARIRYSSNTYYADSVKGRFTISRDNAKNNVYLQMTSLKPEDTAVYYCAAGSTRYAGWTYNYWGQGTHVTVSS | high polyreactivity
QVQLVESGGGLVHAGGSLRLSCAASGSIYYAYAMGGYRQAPGKERELVATITWNGDSTYYADSVKGRFTISLDNAKNTVYLQMNSLKPEDTAVYYCAARYRWPIPGTQYEYWGQGTQVTVSS | low polyreactivity
QVQLVESGGGLVHAGGSLRLSCAASGSNFNINAMGWYRQAPGKERELVAAITTSGGRTYYSDSVKGRFTISRDNAKNTVYLQMNSLKPEDTAVYYCNARHLPGSRSWRWITYDYWGQGTQVTVSS | low polyreactivity
QVQLVESGGGLVHAGGSLRLSCAASGSTFGRYTMGWYRQAPGKERELVAAISYSSGRTYYADSVKGRFTISRDNGKNTVYLQMNSLKAEDSAVYYCAAVSRGRGEYDYWGQGTQVTVSS | high polyreactivity
QVQLVESGGGLVHAGGSLRLSCAASGSTFLPNVMGWYRQAPGTERELVAANSSRGGRTYYADSVKGRFTISRDNAKNTVYLQMNSLKPEDTAVYYCAAYTRDTTGSAGIYRDDYWGQGTQVTVSS | high polyreactivity
QVQLVESGGGLVHAGGSLRLSCAASGSTFSRNVMVWYRQAPGKEWELVAAISRGGSTNYADSVKGRFTISRENAKNTVYLQMKSLKPEDTAVYYCNAPRLGKFYNWGQGTQVTVSS | low polyreactivity
QVQLVESGGGLVHAGGSLRLSCAASGSTFWYNAMGWYRQAPGKERELVAAITWSGSRTYYSDSVKGRFTISRDNAKNTVYLQMNSLKPEDTAVYYCNRTRSFTRYDVFYGTIPAFDYWGQGTQVTVSS | high polyreactivity
QVQLVESGGGLVHAGGSLRLSCAASGSTFYQNGMGWYRQAHGQERELVAALTGDGGSTYYADSVKGRFTISRDNAKNTVSLHMNSLKPEDTAVYYCAADWTVITDSQFNSGYDYWGQGTQVTVSS | low polyreactivity
QVQLVESGGGLVHAGGSLRLSCAASGSTLRGYVMGWYRQAPGKERELVAAITQRAGSTYYADSVKGRFTISRDNAKNPVYLQMNSLKAEDTAVYYCNVDRHYAVESGYWGQGTQVTVSS | high polyreactivity
QVQLVESGGGLVHAGGSLRLSCAASVSIFASNAMGWYRQAPGKERELVAAITSSGRTKYADSVKGRFTISRDNAKNTVYLQMNSLNPEDTAVYYCAAVYYTYFGRYDYWGQGTQVTVSS | high polyreactivity
QVQLVESGGGLVHAGGSLRLSCAAYGRTFYTYAMGWYSQAPGKVRELVAAISSSGSTYYADSVKGRFTISRDNAKYTVYLQMNSLKPEDTAVYYCNARTSRYRRGGDSWGQGTQVTVSS | high polyreactivity
QVQLVESGGGLVHAGGSLRLSCADSGSIFGWYVMGWYRQAPGKVREFVAAISSVGSTYYADSVKGRFTISRDNAKNTVSLQMNSLKPEDTAVYYCAKLRYPYLFWDDSEYWGQGTQVTVSS | low polyreactivity

Sequence | polyreactivity (PSR sort gate)
QVQLVESGGGLVHAGGSLRLSCAGSGSTFRPYAMGWYRQAPGKERELVAAIRKIGGRTYYADSVKGRFTISRDNAKNTVYLQMNSLKPEDTAVYNCNKRIGGGVHAYNYWGQGTQVSVSS | low polyreactivity
QVQLVESGGGLVHAGGSLRLSCPASGRIFPHYAMGWYRQAPGKEREMVAAISGRGGNTYYADSVKGRFTISRDNAKNTVYLQMNSLKPEDTAVYYCAADVSWRPSWGYDYWGQGTQVTVSS | high polyreactivity
QVQLVESGGGLVHAGGSLRLSFAASGRTFVNNAMGWYRQAPGKERELVAAITGSCGSTYYADSVKGRFTISRDNAKNTFYLQMNSLKPEYTAVYYCAKRHVGSRYLFDYWGQGTQVTVSS | low polyreactivity
QVQLVESGGGLVHAGGSLRLSSAASGRISLSNAMRWYTQAPGKETEFVAAITKRSDRTYYADSVKGRFTNSRDNAKNPVYLQMNSLKPEETAVYYCGAKPLFGTRDDYWGQGTQVTVSS | low polyreactivity
QVQLVESGGGLVHAGGSLRLSSSASGSTFPVYAMGWYRQAPGKQRELVAAITSGVSTNYADSVKWRFTISRENAKNTVYLQMNSLKPEDTAVYYCAKDFGLLPIRDDYWGQGTQVTVSS | low polyreactivity
QVQLVESGGGLVHAGGSLSLSCAASGPIFGSYGMGWYRQAPGKERELVAAISYSGGRTFYADSVKGRFTISRDNAKNNVYLQMNSLKPEDTAVYYCNKRYIPSYMSHLDYWGQGTQVTVSS | high polyreactivity
QVQLVESGGGLVHAGGSLSLSCAASGSIFGYYAKGWYRQAPGKERELVAAITVSGGSTYYADSVKGRFTISRDNAKNTDYLQLISLKPEDTAVYYCAADDIYGEYYYWGQGTQVTVSS | high polyreactivity
QVQLVESGGGLVHAGGTLRLTCAASGFIFKRYTLGWYRQAPGQERELFATINRNGGNTYYADSVKGRFTISRDNAKNTVYLQMNILKPEDTSVYYCNARYWRAQGWPGYDYWGQGTQVTVSS | high polyreactivity
QVQLVESGGGLVHAGSSLRLSCAASGSTYPYNAMGWYRQAPGKERELVAAIDYSGGSTYAVSVKGRFTISRDNAKNTVYLQMNSLTPEDTAVYYCAYCRVVVYDVSGDDEDYDYWGQGSQVTVSS | low polyreactivity
QVQLVESGGGLVHAVGSHRLSCTASGSTFVAYPMGWYRQAPGKERELVAAITSSGGRTYYADSVKGRFTISRDNSKNTVYLQINSLKPEDTAVYYCAAVTHGRYDWGQGTQVTVSS | high polyreactivity
QVQLVESGGGLVHAVGSLRLSCAASGFIFHEYAMGCYIQAPGKERELVAAISSGGGSTYYADSVKGRFTISRDNAKNTVYLQMNSLKPEDTAVYYCAADATAYSVLTRDYWGQGTQVTVSS | high polyreactivity
QVQLVESGGGLVKAGGPLRLSCAASGSIFYYNPMGWYRQAPGTERELVAAITSGDSTNYADSVKGRFTISRDNAKNSVYLQLNSLKPEDTAVYYCAADYLAALTYYRTYDYWGEGTQVTVSS | low polyreactivity
QVQLVESGGGLVKAGGSLRISCAASGFTFVSYSKGWYRQAPGKERELVADISSGVSTNYADSVKGRFTISRDNAKNTVYLQMNSLNPEDTAVYYCAAYGTKWGRGFYITGYGYWGQGTQVTVSS | low polyreactivity
QVQLVESGGGLVKAGGSLRLSCAASGFIFVPYAMGWYRQAPGKERELVAAITWSSGGNTYYADSVKGRFTISRDNAKNTVYLQMNSLKPEDTAVYYCAAEWYEAGYWYDYWGQGTQVTVSS | high polyreactivity
QVQLVESGGGLVKAGGSLRLSCAASGFTFTIYAMGWYRQAPGKERELVAAITNSGDTNYADSVKGRFTISRDNAKNTVYLQMNSLKPEDTAVYYCAKAYYIGYFFNFGSWGQGTQVTVSS | low polyreactivity
QVQLVESGGGLVKAGGSLRLSCAASGGTFNRNAMGWYRQAPAKERELVAAICSSGGRTYYADSVKGRFTISRDNAKNTVYLQMNSLKPEDTAGYYCAAGRKGHGGAYDSWGQGTQVTVSS | high polyreactivity
QVQLVESGGGLVKAGGSLRLSCAASGITFWRYTMGWYRQAPGIERELVAAITSRGGNTYYADSVKGRFTISRDNAKNTVYLQLNSLKPEDTAVNYCNADRYNKYWYDYWGQGTQVTVSS | high polyreactivity
QVQLVESGGGLVKAGGSLRLSCAASGLNFNRYTMGWNRQAPGKERELVAVIDCSGGSTRYADSVKGRFTISRDNAKNTVDLQMNSLKPEDTAVYYCDYYWAQGTQVTVSS | low polyreactivity
QVQLVESGGGLVKAGGSLRLSCAASGRICSSYAMGWYRQAPGKERELVAAISRGGGRTYYADSVKGRFTNSRDNAKNTVYLQMNSLKPEDTAGYYCAAGRRYASEMDYWGLGTQVTVSS | high polyreactivity
QVQLVESGGGLVKAGGSLRLSCAASGRIFDYNAMGWYRQAPGKERELVAAISYSGGGTYYADSVKGRFTISRDYAKNSVYFQMNSLKPEDTAVYYCAKPYYQYYYISYDYWGQGTQVTVSS | low polyreactivity
QVQLVESGGGLVKAGGSLRLSCAASGRIFYYNTMGWYRQAPGKERELVAAITTNGGSTYYADSVKGRFTISRDNAKNTVYLQMNSLKPEDTAVYYCNRDRYPYYYAYNYWGQGTQVTVSS | low polyreactivity
